Square brackets hold non-standard residues; d marks the D form. Ends that are not written are not given here.

Holding throughout (assay): radioligand binding
Test [1] has as its target mouse melanocortin-1 receptor (mouse, UniProt Q01727 1-315).
The target in test [2] is mouse melanocortin-4 receptor (mouse, UniProt P56450 1-332).
The target of test [3] is mouse melanocortin-3 receptor, Flag-tagged (mouse, UniProt P33033 1-323).
Sequence of mouse melanocortin-3 receptor, Flag-tagged (P33033 whole entry): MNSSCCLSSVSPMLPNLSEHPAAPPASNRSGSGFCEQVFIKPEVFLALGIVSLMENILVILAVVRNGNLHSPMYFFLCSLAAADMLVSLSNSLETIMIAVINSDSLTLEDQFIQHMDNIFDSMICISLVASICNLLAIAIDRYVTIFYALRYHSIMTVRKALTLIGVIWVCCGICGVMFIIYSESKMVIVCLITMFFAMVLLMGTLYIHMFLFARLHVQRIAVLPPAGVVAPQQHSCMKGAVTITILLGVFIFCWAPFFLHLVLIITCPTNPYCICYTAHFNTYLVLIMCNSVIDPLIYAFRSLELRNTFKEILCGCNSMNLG

Sequence of mouse melanocortin-4 receptor (P56450 whole entry): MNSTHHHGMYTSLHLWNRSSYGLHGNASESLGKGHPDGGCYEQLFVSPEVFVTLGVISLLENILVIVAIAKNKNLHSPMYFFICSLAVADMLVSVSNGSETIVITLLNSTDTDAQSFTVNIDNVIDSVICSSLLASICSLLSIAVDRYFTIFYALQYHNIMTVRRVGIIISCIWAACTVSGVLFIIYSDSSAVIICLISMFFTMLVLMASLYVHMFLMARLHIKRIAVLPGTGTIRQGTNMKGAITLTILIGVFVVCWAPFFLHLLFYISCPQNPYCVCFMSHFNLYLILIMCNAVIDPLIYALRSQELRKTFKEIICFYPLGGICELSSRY
Sequence of mouse melanocortin-1 receptor (Q01727 whole entry): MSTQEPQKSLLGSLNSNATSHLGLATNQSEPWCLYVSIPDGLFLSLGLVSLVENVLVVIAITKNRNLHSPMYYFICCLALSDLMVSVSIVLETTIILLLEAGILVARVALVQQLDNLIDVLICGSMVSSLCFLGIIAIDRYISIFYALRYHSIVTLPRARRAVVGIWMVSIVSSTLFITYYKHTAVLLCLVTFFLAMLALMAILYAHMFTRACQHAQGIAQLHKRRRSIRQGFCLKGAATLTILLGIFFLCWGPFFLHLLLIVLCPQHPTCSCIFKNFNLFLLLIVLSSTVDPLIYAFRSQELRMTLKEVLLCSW

As to H[dF]RWPGPGPGPGPGPGH[dF]RW-NH2 [compound 6 (CJL-1-31): homobivalent ligand, two His-DPhe-Arg-Trp scaffolds joined by (Pro-Gly)6], the IC50 in test [1] was 27.5 nM; in test [2], 33 nM; in test [3] it was 3250 nM.

B1: compound 5 (CJL-1-41): His-DPhe-Arg-Trp-NH2 scaffold with (Pro-Gly)6 added to the N-terminus (peptide)
peptide: PGPGPGPGPGPGH[dF]RW-NH2
modifications: N-terminus assumed
SMILES: N=C(N)NCCC[C@H](NC(=O)[C@@H](Cc1ccccc1)NC(=O)[C@H](Cc1c[nH]cn1)NC(=O)CNC(=O)[C@@H]1CCCN1C(=O)CNC(=O)[C@@H]1CCCN1C(=O)CNC(=O)[C@@H]1CCCN1C(=O)CNC(=O)[C@@H]1CCCN1C(=O)CNC(=O)[C@@H]1CCCN1C(=O)CNC(=O)[C@@H]1CCCN1)C(=O)N[C@@H](Cc1c[nH]c2ccccc12)C(N)=O
For B1, the IC50 in test [2] was determined as 258 nM; in test [3], 8430 nM.

B2: compound 4 (CJL-5-35-1): Ac-His-DPhe-Arg-Trp-NH2 scaffold with (Pro-Gly)6 added to the C-terminus (peptide)
peptide: Ac-H[dF]RWPGPGPGPGPGPG-NH2
SMILES: CC(=O)N[C@@H](Cc1c[nH]cn1)C(=O)N[C@H](Cc1ccccc1)C(=O)N[C@@H](CCCNC(=N)N)C(=O)N[C@@H](Cc1c[nH]c2ccccc12)C(=O)N1CCC[C@H]1C(=O)NCC(=O)N1CCC[C@H]1C(=O)NCC(=O)N1CCC[C@H]1C(=O)NCC(=O)N1CCC[C@H]1C(=O)NCC(=O)N1CCC[C@H]1C(=O)NCC(=O)N1CCC[C@H]1C(=O)NCC(N)=O
Consider B2, for which the IC50 was found to be 225 nM in test [1] and 841 nM in test [2].

For orientation: IC50 means the concentration that inhibits the measured activity by half. The low end stands for greater potency, the high end for weaker potency.

The record behind these values is paper PMC5679017 (Journal of medicinal chemistry, 2016).
